Results published in publication doi:10.1101/2020.04.03.024018.
Where two headings read alike, the source gives them in different places.

Experiments:
Experiment in all cases: single-molecule force spectroscopy
[1] = target: C5aR complexed with the PMX53 antagonist (free PMX53 injected) (human) (UniProt P21730)
[2] = target: C5aR R175V/Y258V double mutant (human) (UniProt P21730)
[3] = target: C5a anaphylatoxin chemotactic receptor 1 (C5aR), wild type (human) (UniProt P21730)
[4] = target: C5aR D282A mutant (human) (UniProt P21730)
[5] = target: C5aR complexed with the PMX53 antagonist (free PMX53 injected) (human) (UniProt P21730); remark: listed apart in the source

complement C5a anaphylatoxin, sequence (P01031 678-751): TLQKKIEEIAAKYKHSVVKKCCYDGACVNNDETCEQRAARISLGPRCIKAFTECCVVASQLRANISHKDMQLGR
C5aR complexed with the PMX53 antagonist (free PMX53 injected) (human), sequence (P21730 whole entry, looked up, one chain of several): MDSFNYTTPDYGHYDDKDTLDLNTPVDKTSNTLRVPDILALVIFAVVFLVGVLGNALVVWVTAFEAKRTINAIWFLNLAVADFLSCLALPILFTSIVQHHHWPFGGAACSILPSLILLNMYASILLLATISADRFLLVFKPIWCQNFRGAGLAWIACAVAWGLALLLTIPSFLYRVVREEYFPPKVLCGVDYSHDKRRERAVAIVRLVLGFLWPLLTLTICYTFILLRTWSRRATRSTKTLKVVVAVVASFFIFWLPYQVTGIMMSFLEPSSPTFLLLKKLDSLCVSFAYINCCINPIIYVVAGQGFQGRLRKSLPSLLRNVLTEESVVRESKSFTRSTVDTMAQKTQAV
C5a anaphylatoxin chemotactic receptor 1 (C5aR), wild type (human), sequence (P21730 whole entry): as the sequence (P21730 whole entry, looked up, one chain of several) above
C5aR D282A mutant (human), sequence (P21730 whole entry D282A): as the sequence (P21730 whole entry, looked up, one chain of several) above, with D282A counted along it
C5aR R175V/Y258V double mutant (human), sequence (P21730 whole entry R175V/Y258V): as the sequence (P21730 whole entry, looked up, one chain of several) above, with R175V, Y258V counted along it

Substance	residence time τ0.5 [1] [ms]	reduction in residence time against C5aR WT [2] [%]	Kd [3] [nM]	equilibrium force Feq [3] [pN]	residence time [4] [ms]	Kd [1] [mM]	equilibrium force Feq [1] [pN]	equilibrium force Feq [5] [pN]
C5a des-Arg (ligand)	0.5							
Cys-Gly3-Phe-[{Orn}-Pro-{D-Cha}-Trp-Arg] (PMX53-Gly3-Cys), PMX53 antagonist as tethered to the AFM tip (peptide)		40	4.7	50	0.1			
complement C5a anaphylatoxin (from UniProt P01031 678-751) (ligand)	0.2					800	23	23
